Results from publication PMC2120494.

Target: R-Ras or R-Ras(38V)
Test: co-IP

## Raf-1 kinase, baculovirus-produced (from UniProt P04049 1-648) (enzyme)
  percent of total Raf co-immunoprecipitated: 10 to 20%
